Reference: patent US5574136, “DNA encoding granulocyte colony-stimulating factor receptor and protein thereof” (Osaka Bioscience Institute, dated 1996)

Legend:
[1] = target: T1, mouse recombinant G-CSF (granulocyte colony-stimulating factor) (mouse, UniProt P09920, radioiodinated (125I, IODO-GEN method) where used as the labelled ligand; unlabelled where used as competitor); experiment: saturation binding of murine 125I-G-CSF to COS cells transfected with pHQ3, Scatchard plot
[2] = target: T1, mouse recombinant G-CSF (granulocyte …); experiment: saturation binding of 125I-G-CSF to COS cells transfected with pJ17, Scatchard plot
Experimental: The binding of ^125I-G-CSF to COS or NFS-60 cells was examined. COS cells grown on 15 cm plates were transfected with 20 µg of the pI62 or pJ17 plasmid. Cells were split into 6-well microtiter plates at 12 hr after the glycerol shock, and grown for 60 hr in DMEM containing 10% FCS. Cells were washed with binding medium, and incubated at 4° C. for 4 hr with ^125I-G-CSF (10 pM to 1.2 nM range). To determine the non-specific binding of ^125I-G-CSF to cells, a large excess of unlabeled G-CSF (800 nM) was incubated in the assay mixture, and the radioactivity bound to the cells was subtracted from the total binding to yield the specific binding.
For binding of G-CSF to NFS-60 cells, 5.2 ×10^6 cells were incubated at 4° C. for 4 hr with various concentrations of ^125I-G-CSF in 0.3 ml of RPMI-1640 medium containing 10% FCS and 20 mM HEPES (pH 7.3). As mentioned above, 1 ×10^6 COS cells transfected with the plasmid pJ17 were incubated with various amounts of ^125I-G-CSF with or without an excess of unlabeled G-CSF. In the FIG. 3A, the specific binding (●) is shown as the difference between total (○) and non-specific binding (Δ). FIG. 3B is the scatchard plot of G-CSF binding data in COS cells, and FIG. 3C is the saturated binding of ^125I-G-CSF to NFS-60 cells, showing total (○), non-specific (Δ) and specific (●) binding to cells. […]

[3] = target: T2, human recombinant M-CSF (human, UniProt P09603); experiment: competition for binding of 125I-mouse G-CSF to COS cells transfected with pJ17
T2 sequence: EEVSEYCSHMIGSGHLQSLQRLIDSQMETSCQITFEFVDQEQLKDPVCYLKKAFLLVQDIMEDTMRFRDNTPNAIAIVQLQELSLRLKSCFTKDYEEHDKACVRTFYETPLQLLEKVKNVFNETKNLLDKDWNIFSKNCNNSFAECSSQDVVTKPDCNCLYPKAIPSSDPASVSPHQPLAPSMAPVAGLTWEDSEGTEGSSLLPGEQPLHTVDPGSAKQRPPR

[4] = target: T3, mouse recombinant IL-6 (mouse, UniProt P08505); experiment: as above
T3 sequence: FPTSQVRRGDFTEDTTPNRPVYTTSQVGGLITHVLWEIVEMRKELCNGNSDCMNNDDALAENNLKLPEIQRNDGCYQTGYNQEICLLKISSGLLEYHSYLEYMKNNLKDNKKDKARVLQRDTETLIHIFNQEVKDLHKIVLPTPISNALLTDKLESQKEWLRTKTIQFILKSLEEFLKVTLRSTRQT

[5] = target: mouse recombinant GM-CSF (mouse, UniProt P01587); experiment: as above
[6] = target: mouse recombinant LIF (leukemia inhibitory factor) (mouse, UniProt P09056); experiment: as above
[7] = target: T4, rat prolactin (rat, UniProt P01237); experiment: as above
T4 sequence: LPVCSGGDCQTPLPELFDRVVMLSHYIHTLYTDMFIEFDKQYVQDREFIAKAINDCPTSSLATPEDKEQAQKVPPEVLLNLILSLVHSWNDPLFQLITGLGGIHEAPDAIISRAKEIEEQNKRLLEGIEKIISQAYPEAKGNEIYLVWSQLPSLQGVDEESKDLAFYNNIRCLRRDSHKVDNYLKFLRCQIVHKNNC

[8] = target: mouse recombinant IL-3 (mouse, UniProt P01586); experiment: as above
[9] = target: T1, mouse recombinant G-CSF (granulocyte …); experiment: saturation binding of 125I-G-CSF to NFS-60 cells, Scatchard plot
Experimental: For binding of G-CSF to NFS-60 cells, 5.2 ×10^6 cells were incubated at 4° C. for 4 hr with various concentrations of ^125I-G-CSF in 0.3 ml of RPMI-1640 medium containing 10% FCS and 20 mM HEPES (pH 7.3). As mentioned above, 1 ×10^6 COS cells transfected with the plasmid pJ17 were incubated with various amounts of ^125I-G-CSF with or without an excess of unlabeled G-CSF. In the FIG. 3A, the specific binding (●) is shown as the difference between total (○) and non-specific binding (Δ). FIG. 3B is the scatchard plot of G-CSF binding data in COS cells, and FIG. 3C is the saturated binding of ^125I-G-CSF to NFS-60 cells, showing total (○), non-specific (Δ) and specific (●) binding to cells. The specific binding is the difference between the total and non-specific binding. FIG. 3D is the scatchard plot of G-CSF binding data on NFS-60 cells. […] If the transfection efficiency of COS cells was assumed to be 10 to 20% (Sympayrac and Danna, Proc. Natl. Acad. Sci. USA, 78, 7575–7578 (1981)), the positively transfected COS cells probably expressed the recombinant G-CSF receptor at 1.5-3.0 ×10^5 molecules per cell.

B1: human G-CSF receptor, class 1 (plasmid pHQ3), expressed on COS cells (receptor)
chain: EECGHISVSAPIVHLGDPITASCIIKQNCSHLDPEPQILWRLGAELQPGGRQQRLSDGTQESIITLPHLNHTQAFLSCCLNWGNSLQILDQVELRAGYPPAIPHNLSCLMNLTTSSLICQWEPGPETHLPTSFTLKSFKSRGNCQTQGDSILDCVPKDGQSHCCIPRKHLLLYQNMGIWVQAENALGTSMSPQLCLDPMDVVKLEPPMLRTMDPSPEAAPPQAGCLQLCWEPWQPGLHINQKCELRHKPQRGEASWALVGPLPLEALQYELCGLLPATAYTLQIRCIRWPLPGHWSDWSPSLELRTTERAPTVRLDTWWRQRQLDPRTVQLFWKPVPLEEDSGRIQGYVVSWRPSGQAGAILPLCNTTELSCTFHLPSEAQEVALVAYNSAGTSRPTPVVFSESRGPALTRLHAMARDPHSLWVGWEPPNPWPQGYVIEWGLGPPSASNSNKTWRMEQNGRATGFLLKENIRPFQLYEIIVTPLYQDTMGPSQHVYAYSQEMAPSHAPELHLKHIGKTWAQLEWVPEPPELGKSPLTHYTIFWTNAQNQSFSAILNASSRGFVLHGLEPASLYHIHLMAASQAGATNSTVLTLMTLTPEGSELHIILGLFGLLLLLTCLCGTAWLCCSPNRKNPLWPSVPDPAHSSLGSWVPTIMEEDAFQLPGLGTPPITKLTVLEEDEKKPVPWESHNSSETCGLPTLVQTYVLQGDPRAVSTQPQSQSGTSDQVLYGQLLGSPTSPGPGHYLRCDSTQPLLAGLTPSPKSYENLWFQASPLGTLVTPAPSQEDDCVFGPLLNFPLLQGIRVHGMEALGSF
B1 showed a Kd [1] of 550 pM.

B2: recombinant murine G-CSF receptor expressed on COS cells (plasmids pI62, pJ17) (receptor)
chain: CGHIEISPPVVRLGDPVLASCTISPNCSKLDQQAKILWRLQDEPIQPGDRQHHLPDGTQESLITLPHLNYTQAFLFCLVPWEDSVQLLDQAELHAGYPPASPSNLSCLMHLTTNSLVCQWEPGPETHLPTSFILKSFRSRADCQYQGDTIPDCVAKKRQNNCSIPRKNLLLYQYMAIWVQAENMLGSSESPKLCLDPMDVVKLEPPMLQALDIGPDVVSHQPGCLWLSWKPWKPSEYMEQECELRYQPQLKGANWTLVFHLPSSKDQFELCGLHQAPVYTLQMRCIRSSLPGFWSPWSPGLQLRPTMKAPTIRLDTWCQKKQLDPGTVSVQLFWKPTPLQEDSGQIQGYLLSWNSPDHQGQDIHLCNTTQLSCIFLLPSEAQNVTLVAYNKAGTSSPTTVVFLENEGPAVTGLHAMAQDLNTIWVDWEAPSLLPQGYLIEWEMSSPSYNNSYKSWMIEPNGNITGILLKDNINPFQLYRITVAPLYPGIVGPPVNVYTFAGERAPPHAPALHLKHVGTTWAQLEWVPEAPRLGMIPLTHYTIFWADAGDHSFSVTLNISLHDFVLKHLEPASLYHVYLMATSRAGSTNSTGLTLRTLDPSDLNIFLGILCLVLLSTTCVVTWLCCKRRGKTSFWSDVPDPAHSSLSSWLPTIMTEETFQLPSFWDSSVPSITKITELEEDKKPTHWDSESSGNGSLPALVQAYVLQGDPREISNQSQPPSRTGDQVLYGQVLESPTSPGVMQYIRSDSTQPLLGGPTPSPKSYENIWFHSRPQETFVPQPPNQEDDCVFGPPFDFPLFQGLQVHGVEEQGGF
For B2, the Kd [2] was 290 pM, the binding result [3] was “no binding” and the binding result [4] was “no binding”. B2: no binding [5]; no binding [6]; no binding [7]. B2: no binding [8].

B3: native murine G-CSF receptor on NFS-60 cells (receptor)
chain: B2 chain
B3 gave a Kd [9] of 180 pM.
